Test results reported in patent US20120003245A1 (UNIVERSITY OF GUELPH, published 2012).
Where a chain is given by its changes, count along the chain named.

B1: anti-α-cobratoxin VHH C2 (VHH)
VHH: QVKLEESGGGLVLPGGSLRLSCAASGSISSIYAMGWYRQAPGKQREVVAVITNGNSPNYADSVKGRFTISRDNAKNTVYLQMNSLKPEDTAVYYCNVEGVRYGDSWYDGDYWGQGTQVTVSS
B2: anti-α-cobratoxin VHH C43 (VHH)
VHH: B1 VHH with Q1R, L13Q, P14A, A24V, I28T, S29F, S30D, I31D, M34I
B3: anti-α-cobratoxin VHH C19 (VHH)
VHH: QVKLEESGGGLAQAGGSLRLSCIGSGDISSFNAMGWYRQVPGKQRELVAFISSGGRSKYTDSVKGRFTISGDNAKNTVYLQMIDLKPEDTAVYYCNAGSVVSYETGNYYEPSNYWGQGTQVTVSS
B4: anti-α-cobratoxin VHH C20 (VHH)
VHH: QVKLEESGGGLVQPGGSLRLSCVGSGSISSFNGMGWYRQVPGKQRELVAFISSGGRSKYTDSVKGRFTISGDNAKSTVYLQMINLKPEDTAVYYCNVGSVLSYVTGNYYEPSDYWGQGTQVTVSS

Target: α-cobratoxin (Naja kaouthia, UniProt P01391)
Sequence (P01391 whole entry): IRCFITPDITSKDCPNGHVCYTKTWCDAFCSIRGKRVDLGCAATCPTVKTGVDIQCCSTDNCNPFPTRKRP

Binder	Kd [nM]	koff [s⁻¹]	kon [M⁻¹ s⁻¹]
B1	0.4	0.00019	520000
B2	24	0.0068	290000
B3	25	0.01	580000
B4	1	0.0017	1.8e+06
